Experimental data from patent publication US20250327097A1, “ORGANISMS PRODUCING LESS CROTONIC ACID” (Global Bioenergies, priority 2021, published 2025).

system: 3-methylcrotonic acid; format: biochemical, Yersinia frederiksenii; set-up: key: “+” representing a low increase in activity; “++++” representing a high increase in activity

Row | Molecule | Activity relative to WT
1 | N388M-L432F-L434W-S436N (protein) MFLKSLREQINLLKRQGDLRIINRPVDSYLEAAAIIRRSTETKAPVPLMTNIKGYPGCSIVGGLAALSSNPEYPLSRVAMSLGLSTTASAQSIVQYLIDGLKKTPYLPVEIDSNSAPCKQNILRGEDASLAHFPIPQVHQHDGNRYVNTWGVFIVESPDGQWCNWSIQRVQYLNDRQMIALVFPSQHISDIWEEWVKIGKPMPYALVQGCEPIVPYIAGLPLLERNVNEAEYIGALYGKGIEVVKCETHDLRVPASSEVVIEGYFAITREGVEGPFGEFAGYIPNENSLQPILSITAISWQDDPIWPVVAEGKPVDEYHTCSGIGDAAAIQNVLLTANLPVSFVWVPLYSACHLMIVSINRHWRQTHPDLTSEQLTKKVGDVIHQTRMSIKLPKIVVLDDDVDPADTESLLWALATRIHPERKRYFYESCIFPWLNCYSEEERHNRKGKRVIIDALLPENHGAISSFDYAYPDDIKQRVLMHWETDFSHD | +
2 | C430P-L432F-L434W-S436N (protein) MFLKSLREQINLLKRQGDLRIINRPVDSYLEAAAIIRRSTETKAPVPLMTNIKGYPGCSIVGGLAALSSNPEYPLSRVAMSLGLSTTASAQSIVQYLIDGLKKTPYLPVEIDSNSAPCKQNILRGEDASLAHFPIPQVHQHDGNRYVNTWGVFIVESPDGQWCNWSIQRVQYLNDRQMIALVFPSQHISDIWEEWVKIGKPMPYALVQGCEPIVPYIAGLPLLERNVNEAEYIGALYGKGIEVVKCETHDLRVPASSEVVIEGYFAITREGVEGPFGEFAGYIPNENSLQPILSITAISWQDDPIWPVVAEGKPVDEYHTCSGIGDAAAIQNVLLTANLPVSFVWVPLYSACHLMIVSINRHWRQTHPDLTSEQLTKKVGDVIHQTRNSIKLPKIVVLDDDVDPADTESLLWALATRIHPERKRYFYESPIFPWLNCYSEEERHNRKGKRVIIDALLPENHGAISSFDYAYPDDIKQRVLMHWETDFSHD | +
3 | C430S-L432F-L434W-S436N (protein) MFLKSLREQINLLKRQGDLRIINRPVDSYLEAAAIIRRSTETKAPVPLMTNIKGYPGCSIVGGLAALSSNPEYPLSRVAMSLGLSTTASAQSIVQYLIDGLKKTPYLPVEIDSNSAPCKQNILRGEDASLAHFPIPQVHQHDGNRYVNTWGVFIVESPDGQWCNWSIQRVQYLNDRQMIALVFPSQHISDIWEEWVKIGKPMPYALVQGCEPIVPYIAGLPLLERNVNEAEYIGALYGKGIEVVKCETHDLRVPASSEVVIEGYFAITREGVEGPFGEFAGYIPNENSLQPILSITAISWQDDPIWPVVAEGKPVDEYHTCSGIGDAAAIQNVLLTANLPVSFVWVPLYSACHLMIVSINRHWRQTHPDLTSEQLTKKVGDVIHQTRNSIKLPKIVVLDDDVDPADTESLLWALATRIHPERKRYFYESSIFPWLNCYSEEERHNRKGKRVIIDALLPENHGAISSFDYAYPDDIKQRVLMHWETDFSHD | +
4 | K394R-L432F-L434W-S436N (protein) MFLKSLREQINLLKRQGDLRIINRPVDSYLEAAAIIRRSTETKAPVPLMTNIKGYPGCSIVGGLAALSSNPEYPLSRVAMSLGLSTTASAQSIVQYLIDGLKKTPYLPVEIDSNSAPCKQNILRGEDASLAHFPIPQVHQHDGNRYVNTWGVFIVESPDGQWCNWSIQRVQYLNDRQMIALVFPSQHISDIWEEWVKIGKPMPYALVQGCEPIVPYIAGLPLLERNVNEAEYIGALYGKGIEVVKCETHDLRVPASSEVVIEGYFAITREGVEGPFGEFAGYIPNENSLQPILSITAISWQDDPIWPVVAEGKPVDEYHTCSGIGDAAAIQNVLLTANLPVSFVWVPLYSACHLMIVSINRHWRQTHPDLTSEQLTKKVGDVIHQTRNSIKLPRIVVLDDDVDPADTESLLWALATRIHPERKRYFYESCIFPWLNCYSEEERHNRKGKRVIIDALLPENHGAISSFDYAYPDDIKQRVLMHWETDFSHD | +
